T1: CD40 on murine splenic B cells (mouse, UniProt P27512 20-289)
T1 sequence (looked up): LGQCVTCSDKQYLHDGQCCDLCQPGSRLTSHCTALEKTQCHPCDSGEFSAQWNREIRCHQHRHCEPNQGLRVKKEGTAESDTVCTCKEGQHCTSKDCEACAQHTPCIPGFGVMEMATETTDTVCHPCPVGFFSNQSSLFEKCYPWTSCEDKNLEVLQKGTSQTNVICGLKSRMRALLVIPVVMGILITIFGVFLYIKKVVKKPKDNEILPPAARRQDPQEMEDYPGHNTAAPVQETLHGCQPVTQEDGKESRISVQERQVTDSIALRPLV

B1: murine CD40-human Fc fusion protein (Fc fusion, mouse, UniProt P27512 20-193, looked up)
chain: LGQCVTCSDKQYLHDGQCCDLCQPGSRLTSHCTALEKTQCHPCDSGEFSAQWNREIRCHQHRHCEPNQGLRVKKEGTAESDTVCTCKEGQHCTSKDCEACAQHTPCIPGFGVMEMATETTDTVCHPCPVGFFSNQSSLFEKCYPWTSCEDKNLEVLQKGTSQTNVICGLKSRMR
notes: captured on immobilised anti-human Fc mAb in the BIAcore assay; also called CD40-Fc; not shown: human immunoglobulin Fc
B2: soluble trimeric CD154 (tCD154) (ligand, human;mouse, UniProt P35247 223-257, looked up)
chain: DVASLRQQVEALQGQVQHLQAAFSQYKKVELFPNGLDKVEEEVNLHEDFVFIKKLKRCNKGEGSLSLLNCEEMRRQFEDLVKDITLNKEEKKENSFEMQRGDEDPQIAAHVVSEANSNAASVLQWAKKGYYTMKSNLVMLENGKQLTVKREGLYYVYTQVTFCSNREPSSQRPFIVGLWLKPSSGSERILLKAANTHSSSQLCEQQSVHLGGVFELQAGASVFVNVTEASQVIHRVGFSSFGLLKL
notes: range 223-257;range 50-260; Expressed in CHO-K1 with the rat CD4 leader (secretion signal, left out here); Non-covalent homotrimer, apparent mass ~100 kDa by size exclusion; also called trimeric form of CD154

How the values were obtained:
[1] = molecular target: B1; experiment: BIAcore; CD40-Fc captured on anti-human Fc mAb, SP-D-CD154 injected
[2] = molecular target: T1, CD40 on murine splenic B cells; experiment: cell-based or functional assay
[3] = molecular target: B1; experiment: BIAcore; dissociation half-time from captured CD40-Fc
Method: (§1) The lower activity of tCD154 when compared with SP-D-CD154 could be the result of its relatively low affinity for CD40. To address this question the inventors analysed the affinity and kinetics of the interaction between tCD154 or SP-D-CD154 and CD40 using the BIAcore™ biosensor, which measures protein-protein interaction in real time. A murine anti-human Fc mAb was covalently coupled to the dextran matrix, and either tCD154 or SPD-CD154 was then injected over this mAb in order to determine the level of non-specific binding. Specific binding was determined by first injecting murine CD40-human Fc fusion protein which bound to the immobilised anti-human Fc mAb, and then injecting (31.3-250 nM) tCD154 or SPD-CD154 (FIG. 6). Co-injection of the anti-CD154 mAb MR1 and tCD154 or SP-D-CD154 completely abolished the binding of tCD154 or SP-D-CD154 to CD40 (data not shown). […] SP-D-CD154 can potentially bind to twelve CD40 molecules, compared to three molecules with tCD154 [9], implying that the extent of receptor oligomerisation may influence the signals generated by CD40. Within the X-shaped SP-D molecule, the adjacent arms are separated by a distance of either ˜20 nm or ˜90 nm (FIG. 1A). Thus if all four arms of SP-D-CD154 engage cell surface-expressed CD40, two clusters are likely to form each with six closely associated CD40 molecules.

[4] = molecular target: B1; experiment: BIAcore; CD40-Fc captured on anti-human Fc mAb, SP-D-CD154 injected at 31.3-250 nM; apparent affinity
[5] = molecular target: B2; experiment: BIAcore; CD40-Fc captured on anti-human Fc mAb, tCD154 injected at 31.3-250 nM; apparent affinity
Method: as §1

[6] = molecular target: B2; experiment: BIAcore; CD40-Fc captured on anti-human Fc mAb, tCD154 injected
Method: as §1

| Molecule | koff [1] [s⁻¹] | fold increase in the level of CD86 on B cells against untreated cells (5 nM, 24 h) [2] [fold] | fold increase in the level of ICAM-1 on B cells against untreated cells (5 nM, 24 h) [2] [fold] | in vitro B cell proliferation assay [2] [µg/mL] | mean forward scatter of B cells (size and activation status) [2] | proliferation of murine splenic B cells ([3H] thymidine incorporation) [2] [fold] | t1/2 [3] [h] | Kd [4] [nM] | Kd [5] [nM] | koff [6] [s⁻¹] |
| --- | --- | --- | --- | --- | --- | --- | --- | --- | --- | --- |
| SP-D-CD154 dodecameric fusion protein between lung surfactant protein-D and CD154 (from UniProt P35247 1-257; P27548 50-260) (ligand) | 0.00014 | 3.6 | 3.8 | 2 | 409 | 8 | 1.38 | 1.3 |  |  |
| B1 |  |  |  |  |  |  |  |  | 2 | 0.00018 |
| B2 |  | 1.4 | 2 |  |  |  | ~1.07 |  |  |  |

Source: US20040047873A1 (published 2004)
